Measurements as given in US20220289806A1 (CYTIMM THERAPEUTICS, published 2022).

What was measured:
[1] = biological target: T1, IL-2Rαβγ on human T cells (human, UniProt P01589 22-272; P14784 27-551; P31785 23-369); experiment: cell-based or functional assay
T1 sequence (looked up) 1: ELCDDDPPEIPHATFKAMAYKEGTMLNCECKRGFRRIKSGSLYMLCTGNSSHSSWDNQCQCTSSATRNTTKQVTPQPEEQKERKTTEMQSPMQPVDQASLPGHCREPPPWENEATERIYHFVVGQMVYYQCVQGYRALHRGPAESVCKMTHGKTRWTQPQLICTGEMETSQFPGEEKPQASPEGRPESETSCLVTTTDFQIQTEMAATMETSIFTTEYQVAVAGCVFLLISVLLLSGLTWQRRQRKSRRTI
T1 sequence (looked up) 2: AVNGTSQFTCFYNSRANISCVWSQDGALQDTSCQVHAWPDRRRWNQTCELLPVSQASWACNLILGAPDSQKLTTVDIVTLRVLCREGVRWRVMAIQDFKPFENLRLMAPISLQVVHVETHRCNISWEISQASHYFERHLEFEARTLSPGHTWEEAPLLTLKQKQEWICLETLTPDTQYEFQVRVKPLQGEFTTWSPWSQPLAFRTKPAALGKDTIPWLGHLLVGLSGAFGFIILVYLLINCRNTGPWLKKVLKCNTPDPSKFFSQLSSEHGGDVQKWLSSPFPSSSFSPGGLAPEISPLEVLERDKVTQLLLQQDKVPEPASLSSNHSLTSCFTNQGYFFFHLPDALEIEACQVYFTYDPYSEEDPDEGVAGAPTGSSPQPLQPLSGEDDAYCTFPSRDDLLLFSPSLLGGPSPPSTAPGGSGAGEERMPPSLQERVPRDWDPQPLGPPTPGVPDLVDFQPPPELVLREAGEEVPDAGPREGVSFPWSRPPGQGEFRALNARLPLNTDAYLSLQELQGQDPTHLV
T1 sequence (looked up) 3: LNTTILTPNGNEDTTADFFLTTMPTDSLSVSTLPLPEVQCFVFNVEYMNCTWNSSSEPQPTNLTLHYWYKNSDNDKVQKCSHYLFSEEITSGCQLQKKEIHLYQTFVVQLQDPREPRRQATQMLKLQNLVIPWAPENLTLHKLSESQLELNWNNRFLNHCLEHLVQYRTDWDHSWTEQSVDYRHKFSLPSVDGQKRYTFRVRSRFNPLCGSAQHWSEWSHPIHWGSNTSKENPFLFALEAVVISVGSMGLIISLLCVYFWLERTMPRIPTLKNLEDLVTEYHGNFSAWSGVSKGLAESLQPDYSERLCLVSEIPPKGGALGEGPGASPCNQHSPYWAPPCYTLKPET

[2] = biological target: T2, IL-2Rβγ on human CD8+CD45RA+CD25low naïve T cells (human, UniProt P14784 27-551; P31785 23-369); experiment: cell-based or functional assay
T2 sequence (looked up) 1: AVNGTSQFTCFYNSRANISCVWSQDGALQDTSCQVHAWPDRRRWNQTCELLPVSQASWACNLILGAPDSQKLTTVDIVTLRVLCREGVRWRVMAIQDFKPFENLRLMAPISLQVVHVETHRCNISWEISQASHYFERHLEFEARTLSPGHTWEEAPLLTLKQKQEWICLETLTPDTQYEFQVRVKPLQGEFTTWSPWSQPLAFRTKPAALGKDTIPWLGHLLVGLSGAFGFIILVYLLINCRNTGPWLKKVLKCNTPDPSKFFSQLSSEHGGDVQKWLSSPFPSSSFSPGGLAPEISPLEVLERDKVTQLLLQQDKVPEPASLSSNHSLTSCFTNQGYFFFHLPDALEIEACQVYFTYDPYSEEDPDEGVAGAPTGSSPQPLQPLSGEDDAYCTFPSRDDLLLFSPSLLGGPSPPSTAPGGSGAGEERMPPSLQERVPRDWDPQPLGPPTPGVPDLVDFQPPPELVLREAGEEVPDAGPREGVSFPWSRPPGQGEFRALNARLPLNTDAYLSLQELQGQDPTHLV
T2 sequence (looked up) 2: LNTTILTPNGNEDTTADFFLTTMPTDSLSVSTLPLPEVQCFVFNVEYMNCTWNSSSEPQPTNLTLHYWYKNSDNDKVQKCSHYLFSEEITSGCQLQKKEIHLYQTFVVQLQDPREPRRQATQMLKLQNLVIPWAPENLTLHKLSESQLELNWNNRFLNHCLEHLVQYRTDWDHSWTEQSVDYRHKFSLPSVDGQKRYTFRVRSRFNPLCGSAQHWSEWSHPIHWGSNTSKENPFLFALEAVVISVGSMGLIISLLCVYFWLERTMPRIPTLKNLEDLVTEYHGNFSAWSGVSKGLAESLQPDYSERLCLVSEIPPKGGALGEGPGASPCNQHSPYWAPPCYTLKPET

[3] = biological target: T3, IL-2Rα in human Fc fusion protein format (ACROBiosystems) (human, UniProt P01589 22-217, limits assumed); experiment: Octet QKe (biolayer interferometry): IL-2Rα-human Fc on AHC sensors, serial dilutions of the IL-2 variant [cont.]
T3 construct: Bought reagent, captured on anti-Human IgG Fc Capture (AHC) sensors; also called CD25; not shown: human Fc
T3 sequence (looked up): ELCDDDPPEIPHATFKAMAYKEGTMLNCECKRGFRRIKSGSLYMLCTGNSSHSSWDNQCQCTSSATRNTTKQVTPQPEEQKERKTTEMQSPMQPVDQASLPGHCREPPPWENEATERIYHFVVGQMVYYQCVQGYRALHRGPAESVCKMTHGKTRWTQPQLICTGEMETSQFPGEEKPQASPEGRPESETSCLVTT
From the text: IL-2Rα or IL-2Rβ in human Fc fusion protein format (ACROBiosystems) were captured on anti-Human IgG Fc Capture (AHC) sensors. […] Dissociation was detected following transfer of sensors into wells containing buffer alone. Data were collected and analyzed by Octet User Software. For analysis of the kinetics constants, 1:1 curve fitting model was used.

B1: Y31C-PEG20 + F42K (ligand)
chain: APTSSSTKKTQLQLEHLLLDLQMILNGINNCKNPKLTRMLTKKFYMPKKATELKHLQCLEEELKPLEEVLNLAQSKNFHLRPRDLISNINVIVLELKGSETTFMCEYADETATIVEFLNRWITFSQSIISTLT
modifications: maleimide-PEG 20K on Cys 31
notes: rhIL-2 (C125S) background with Y31C and F42K, PEGylated at Cys 31; not shown: His tag
For B1, the “EC50 of STAT5 phosphorylation, CD25+CD4+ T (IL-2Rαβγ)” value [1] was 1.65 µg/mL, the “EC50 of STAT5 phosphorylation, CD25-CD8+ naïve T (IL-2Rβγ)” value [2] was 1.6 µg/mL and the binding result [3] was “no binding (tested: not printed)”.
